Data on one molecule can be found in doi:10.1101/2020.11.12.379867.

This assay concerns the target GST-STG^9D (GST-fused C-terminus of STG with nine serine residues replaced with aspartate). The assay is described as follows: pull-down.

B1: flag-tagged μ3 subunit of the adaptor protein AP-3 (μ3A) (natural protein)
chain: MIHSLFLINCSGDIFLEKHWKSVVSQSVCDYFFEAQEKAADVENVPPVISTPHHYLISIYRDKLFFVSVIQTEVPPLFVIEFLHRVADTFQDYFGECSEAAIKDNVVIVYELLEEMLDNGFPLATESNILKELIKPPTILRSVVNSITGSSNVGDTLPTGQLSNIPWRRAGVKYTNNEAYFDVVEEIDAIIDKSGSTVFAEIQGVIDACIKLSGMPDLSLSFMNPRLLDDVSFHPCIRFKRWESERVLSFIPPDGNFRLISYRVSSQNLVAIPVYVKHSISFKENSSCGRFDITIGPKQNMGKTIEGITVTVHMPKVVLNMNLTPTQGSYTFDPVTKVLAWDVGKITPQKLPSLKGLVNLQSGAPKPEENPNLNIQFKIQQLAISGLKVNRLDMYGEKYKPFKGVKYVTKAGKFQVRT
B1 displayed an amount of μ3 pulled down (STG^9A = 100%) of 21%.
